Results taken from patent US20130052729A1, “METHOD FOR PREPARING INDUCED PARAXIAL MESODERM PROGENITOR (IPAM) CELLS AND THEIR USE” (priority 2011, published 2013).
“Also recorded” adds a separate entry of the source.

Experiments:
Msgn1RepV mES cells = assay: iPAM induction in Msgn1RepV reporter mES cells (YFP+ cells, flow cytometry); type: cell-based, mouse; details: for effect on number of YFP+ cells: recombinant protein, 15% FBS, 4 days of differentiation
Procedure: ES cells were trypsinized and plated at various densities in gelatin coated, feeder-free, 24 well plates directly in serum-based (15% FBS) or serum-replacement (15% KSR, Invitrogen) conditions supplemented with factors, and DMSO (Sigma). Recombinant proteins were obtained commercially (R&D) and stock solutions were prepared according to manufacturer's recommendation. The GSK-3β inhibitor CHIR99021 was purchased from Stemgent and prepared according to the manufacturer's recommendations. Fluorescent reporter analysis and image acquisition were done on a Zeiss Axiovert system.
Cell cultures were dissociated by trypsinization, analyzed by flow cytometry on a FACScalibur (BD Biosciences) according to YFP expression. Data were further analyzed with MoFlo software (Beckman Coulter) and FlowJo software.
In order to follow the differentiation of ES cells toward the first stage of paraxial mesoderm differentiation (ie presomitic fate), which represents the first step of skeletal muscle differentiation after acquisition of a mesodermal identity, we generated a transgenic mouse ES cell line harboring a fluorescent reporter specifically expressed in paraxial mesoderm progenitors. We used the promoter from the mouse Msgn1, a gene specific for the presomitic mesoderm, to drive the expression of Venus (a modified YFP).
In order to optimize the differentiation conditions for paraxial mesoderm progenitors, we developed a manual screening assay, testing candidate growth factors and drugs interfering with various signaling pathways on ES cells. The Msgn1RepV reporter cells were plated at a defined density in 24-well plates coated with gelatin (0.1%). Two basal culture media were selected: a DMEM based medium containing 15% fetal bovine serum (FBS, high serum) and a defined serum-free medium containing 15% KSR (Invitrogen/Gibco). These basal media were supplemented with candidate factors on day 0 of differentiation. Control and experimental conditions were cultured in parallel. Cells were left to differentiate for three to four days with medium changed on day 2 or 3. Cell cultures were analyzed on day 3 and 4 of differentiation visually and by flow cytometry for YFP+ population quantification.

Wnt signaling = details: cited from earlier work
canonical Wnt signaling = assay: BAT-luc luciferase reporter for canonical Wnt signaling in transfected ES cells; type: cell-based, mouse; details: Rspo3 10 ng/mL, low serum (1% FBS) medium
mouse ES cells = assay: Sequential differentiation of iPAM cells into paraxial mesoderm derivatives (staining, qRT-PCR); type: cell-based; details: DMSO 0.5%
Procedure: From day 0 to day 4, mouse ES cells were differentiated in presence of Rspo3, followed by 15% FBS medium until day 18. Cell types were identified by tissue-specific antibody staining, namely Muscle (Desmin, green), Endothelium (PECAM1/CD31, green) and Cartilage (Alcian Blue).
ES cells were cultured for 4 days in FBS15%, DMSO 0.5% and 10 ng/ml Rspo3 and then switched to FBS 15% or FBS 1% or FBS1% plus […] (Shh) and Retinoic acid (F1ShhRA) or plus Shh, Noggin and LiCl (F1SNLi). Cells were harvested the next day and analyzed by qRT-PCR for the dermal marker Dermol (A) and the muscle marker Myf5 (B). Graphs show fold enrichment.
Total RNA was extracted from ES cell cultures using a Trizol reagent (Invitrogen) or with the Rnaeasy plus mini-kit (Qiagen). RT-PCR was performed on 5 ng total RNA using QuantiFast SYBR Green RT-PCR Kit (Qiagen), appropriate primers and run on a LightCycler 480II (Roche). GAPDH was used as the internal control. […]
For example, between day0 to day4, ES cells were exposed to optimized differentiating conditions (ie. R-spondin3 10 ng/mL, DMSO 0.5%, in 15% FBS basal medium). […] At day 18, cell cultures were fixed and analyzed by tissue specific histochemical staining or immunofluorescence (FIG. 8). […] Cells were harvested the next day and analyzed by qRT-PCR for the dermal marker Dermo 1 and the muscle marker Myf5 (FIG. 9).

HUES1 cells = assay: qRT-PCR of paraxial mesoderm progenitor markers in differentiating human ES cells; type: cell-based; details: 3 to 10 days of culture in 15% FBS containing medium
Procedure: Comparison of the expression of paraxial mesoderm progenitor markers Brachyury (A), PDGFRa (B), Tbx6 (C), Msgn1 (D) measured by Q RT-PCR in HUES1 undifferentiated or cultured in 15% FBS containing medium with or without Rspo3 for up to 10 days. Relative expression to undifferentiated HUES1 cells is shown (fold induction)
Total RNA was extracted from ES cell cultures using a Trizol reagent (Invitrogen) or with the Rnaeasy plus mini-kit (Qiagen). RT-PCR was performed on 5 ng total RNA using QuantiFast SYBR Green RT-PCR Kit (Qiagen), appropriate primers and run on a LightCycler 480II (Roche). GAPDH was used as the internal control.
Next, to confirm that R-spondin also induces iPAM cells from human ES cells differentiation, HUES1 cells were plated has single cells and differentiated in 15% FBS containing medium with or without Rspo3. qRT-PCR time course analysis for paraxial mesoderm progenitor markers expression was performed (FIG. 10).

For `Cc1c[nH]c(-c2cnc(NCCNc3ccc(C#N)cn3)nc2-c2ccc(Cl)cc2Cl)n1` [CHIR99021, reference compound], the “efficiency in inducing YFP+ cells compared with Rspo-3” value (Msgn1RepV mES cells; after 4 days, 15% FBS medium) was “as efficient as Rspo-3”.

With `C[S+](C)[O-]` [DMSO, Dimethyl sulfoxide] the “effect on YFP+ cells” value (Msgn1RepV mES cells; 0.5% DMSO in FBS-containing medium, 4 days in culture) was “positive effect on iPAM induction; also recorded: increase of YFP+ cells”.

B1: R-spondin2: secreted protein of the R-spondin family that activates Wnt signalling pathway; recombinant protein obtained commercially (R&D) (protein, UniProt Q6UXX9 22-243, looked up)
R-spondin-2: QGNRWRRSKRASYVSNPICKGCLSCSKDNGCSRCQQKLFFFLRREGMRQYGECLHSCPSGYYGHRAPDMNRCARCRIENCDSCFSKDFCTKCKVGFYLHRGRCFDECPDGFAPLEETMECVEGCEVGHWSEWGTCSRNNRTCGFKWGLETRTRQIVKKPVKDTILCPTIAESRRCKMTMRHCPGGKRTPKAKEKRNKKKKRKLIERAQEQHSVFLATDRANQ
In the case of B1, the “potency to activate Wnt signaling versus Rspo1 and 4” value (Wnt signaling) is given as “more potent” and the “effect on number of YFP+ cells” value (Msgn1RepV mES cells) is given as “significantly increase the number of YFP+ cells”.

B2: Dkk1: secreted extracellular Wnt antagonist, inhibitor of canonical Wnt signaling (protein, UniProt O94907 32-266, looked up)
Dickkopf-related protein 1: TLNSVLNSNAIKNLPPPLGGAAGHPGSAVSAAPGILYPGGNKYQTIDNYQPYPCAEDEECGTDEYCASPTRGGDAGVQICLACRKRRKRCMRHAMCCPGNYCKNGICVSSDQNHFRGEIEETITESFGNDHSTLDGYSRRTTLSSKMYHTKGQEGSVCLRSSDCASGLCCARHFWSKICKPVLKEGQVCTKHRRKGSHGLEIFQRCYCGEGLSCRIQKDHHQASNSSRLHTCQRH
With B2 the “effect of supplementation of the medium on YFP+ induction” value (Msgn1RepV mES cells; 15% FBS medium, 4 days) was “sharp decrease of YFP+ induction”.

B3: R-spondin3: secreted protein of the R-spondin family that activates Wnt signalling pathway; recombinant protein obtained commercially (R&D) (protein, UniProt Q9BXY4 22-272, looked up)
R-spondin-3: QNASRGRRQRRMHPNVSQGCQGGCATCSDYNGCLSCKPRLFFALERIGMKQIGVCLSSCPSGYYGTRYPDINKCTKCKADCDTCFNKNFCTKCKSGFYLHLGKCLDNCPEGLEANNHTMECVSIVHCEVSEWNPWSPCTKKGKTCGFKRGTETRVREIIQHPSAKGNLCPPTNETRKCTVQRKKCQKGERGKKGRERKRKKPNKGESKEAIPDSKSLESSKEIPEQRENKQQQKKRKVQDKQKSVSVSTVH
In the case of B3, the “potency to activate Wnt signaling versus Rspo1 and 4” value (Wnt signaling) is given as “more potent”, the “luciferase (BAT-luc) activation, canonical Wnt response” value (canonical Wnt signaling) is given as “strongly activated” and the “luciferase (BAT-luc) activation, canonical Wnt response” value (canonical Wnt signaling; listed as Rspo3) is given as “strongly activates the canonical Wnt response”. The “induction of YFP+ cells” value (Msgn1RepV mES cells; 10 ng/mL, both in FBS based medium and KSR based medium) was “up to 70%”, the “YFP+ population of the total population” value (Msgn1RepV mES cells; 10 ng/mL, day 4 of differentiation, 15% FBS medium, flow cytometry) was “more than 70%” and the “effect on number of YFP+ cells” value (Msgn1RepV mES cells) was “significantly increase the number of YFP+ cells”. The “activation of dermal marker Dermo 1 and muscle marker Myf5 (qRT-PCR)” value (mouse ES cells; 4 days Rspo3 10 ng/mL, FBS15%, then switched medium, harvested next day) was “Significant activation of these markers”, the “tissue-specific staining of cultures at day 18” value (mouse ES cells; day0 to day4 R-spondin3 10 ng/mL, 15% FBS, then differentiation media until day 18) was “positive for Cartilage (Alcian blue positive nodules), Muscles (Desmin positive fibers) and Endothelium (CD31/PECAM1)” and the “expression of paraxial mesoderm progenitor markers Brachyury, PDGFRa, Tbx6 and Msgn1” value (HUES1 cells) was “induction of the paraxial mesoderm progenitor markers; also recorded: Strong activation of Msgn1 and Tbx6”.
